# Test results from the PETadex activity labels.
# Legend:
# [1] = Proxy for plastic degradation [HPLC-UV] (µmol); conditions: pH 7
# pNP-C6 = conditions: pH 8; 30 °C
# PET [2] = assay: Proxy for plastic degradation [Absorbance (nm)]; conditions: pH 8.5
# PBSA = assay: Proxy for plastic degradation [kcat/Km (catalytic efficiency)] (mM⁻¹s⁻¹); conditions: pH 8.2
# [3] = Proxy for plastic degradation [Weight/mass loss]; conditions: pH 8
# PET [4] = assay: Proxy for plastic degradation [Weight/mass loss]; conditions: pH 8
# [5] = pH 7.2, part of the chain shown
protein,measurement,setting,value
unnamed (protein) MRALLLSGCLALVLLTQQAAAQTLLVVGDSISAALGLDTSQGWVALLQKRLADEGYDYRVVNASISGDTSAGGLARLPALLAEEKPALVVIELGGNDGLRGMAPAQLQQNLASMAQKARAEGAKVLLLGIQLPPNYGPRYIEAFSRVYGAVAAQEKTALVPFFLEGVGGVQGMMQADGIHPALAAQPRLLENVWPTLKPLL,Km,p-NP-C4; [5],1000 µM
same,kcat,p-NP-C4; [5],12 s⁻¹
same,kcat/Km,p-NP-C4; [5],12000 M⁻¹ s⁻¹
unnamed (protein) MANPYERGPNPTDALLEASSGPFSVSEENVSRLSASGFGGGTIYYPRENNTYGAVAISPGYTGTEASIAWLGGRIASHGFVVITIDTITTLDQPDSRAEQLNAALNHMINRASSTVRSRIDSSRLAVMGHSMGGGGTPRLASQRPDLKAAIPLTPWHLNKNRSSVTVPTLIIGADLDTIAPVATHAKPFYNSLPSSISKAYLELDGATHFAPNIPNKIIGKYSVAWLKRFVDNDTRYTQFLCPGPRDGLFGEVEEYCSTCPF,Proxy for plastic degradation,[1],0.6
unnamed (protein) MPPHAARPGPAQNRRGRAMAVITPRRERSSLLSRALRFTAAAATALVTAVSLAAPAHAANPYERGPNPTDALLEARSGPFSVSEERASRFGADGFGGGTIYYPRENNTYGAVAISPGYTGTQASVAWLGERIASHGFVVITIDTNTTLDQPDSRARQLNAALDYMINDASSAVRSRIDSSRLAVMGHSMGGGGTLRLASQRPDLKAAIPLTPWHLNKNWSSVRVPTLIIGADLDTIAPVLTHARPFYNSLPTSISKAYLELDGATHFAPNIPNKIIGKYSVAWLKRFVDNDTRYTQFLCPGPRDGLFGEVEEYRSTCPF,Km,"p-NP-C4; pH 8, 60 °C",673 µM
same,kcat,"p-NP-C4; pH 8, 60 °C",483 s⁻¹
same,kcat/Km,"p-NP-C4; pH 8, 60 °C",718000 M⁻¹ s⁻¹
unnamed (protein) MRKLYLFLFLTLISPISISIFHAQCTGATVESLTNPGPYTVATLSEADGVRNGPKYAGSTIYYPTNATPPYASIAIVPGFTAAPSSVQEWGPFYASHGIVAIIIGTNSLYDQPEARALALLDALETIKQENGRATSPLIGKLDVTKLAVSGWSMGGGGAQRAAVLDNTISAVVALCPYLTSPQLNHTVPVLIFSGQSDPTAPPSQHANVHYNTTPGTTNKLLFEVKNGNHSVANSPTGGGGAVGKLALSWLKIYLEKNDCYCSVLATAIVNSTTVSSKISQSYQCNNALGVVDSKTRFNLYPNPTKDFVQVNVREMASYQLSSSTGQIVLKGIVTSSKNQIDLSKLPAGVYYLQINGETIKVIKKQ,Km,pNP-C6,300 µM
same,kcat,pNP-C6,8.9 s⁻¹
same,kcat/Km,pNP-C6,29700 M⁻¹ s⁻¹
unnamed (protein) MRLHRLRARLSAVACGLLLLLVRGQGQDSASPIRTTHTGQVLGSLVHVKGANAGVQTFLGIPFAKPPLGPLRFAPPEPPESWSGVRDGTTHPAMCLQDLTAVESEFLSQFNMTFPSDSMSEDCLYLSIYTPAHSHEGSNLPVMVWIHGGALVFGMASLYDGSMLAALENVVVVIIQYRLGVLGFFSTGDKHATGNWGYLDQVAALRWVQQNIAHFGGNPDRVTIFGESAGGTSVSSLVVSPISQGLFHGAIMESGVALLPGLIASSADVISTVVANLSACDQVDSEALVGCLRGKSKEEILAINKPFKMIPGVVDGVFLPRHPQELLASADFQPVPSIVGVNNNEFGWLIPKVMRIYDTQKEMDREASQAALQKMLTLLMLPPTFGDLLREEYIGDNGDPQTLQAQFQEMMADSMFVIPALQVAHFQCSRAPVYFYEFQHQPSWLKNIRPPHMKADHGDELPFVFRSFFGGNYIKFTEEEEQLSRKMMKYWANFARNGNPNGEGLPHWPLFDQEEQYLQLNLQPAVGRALKAHRLQFWKKALPQKIQELEEPEERHTEL,Km,"p-NP-C4; pH 8, 37 °C",31 µM
same,kcat,"p-NP-C4; pH 8, 37 °C",70 s⁻¹
same,kcat/Km,"p-NP-C4; pH 8, 37 °C",2.26e+06 M⁻¹ s⁻¹
unnamed (protein) MKKIYAVALFFLATSFAPNIIFAQCGDVTIESLTNPGPYEVATLTEADGLRNGPDYQGATVYYPTNATPPFASIAIVPGFTALPSSVEEWGPFYASHGIVTIIIGTNSLFDFPEERAVALIDALETMRQENTRSSSPLENQLDVDKFAVSGWSMGGGGAQRAAVLDNTIKGVVALCPWLPNASLNHDSPVLIFSGENDPTAPPAQHADLHYAATPNTTNKLLFEIENGNHSVANTPNGGNGAVGKIALSWLKLYVDENDCYCPLLTESLLVDPPAASKVLSSFECELLSVPDNSFAISVYPNPTHDFVNINSTNPVHFEVYSALGQRLLSGELTQSEKQIDFSNFAKGLYYVRLGNETVKIVRN,Km,pNP-C6,1370 µM
same,kcat,pNP-C6,19.1 s⁻¹
same,kcat/Km,pNP-C6,13900 M⁻¹ s⁻¹
unnamed (protein) MEMLEEHRCFEGWQQRWRHDSSTLNCPMTFSIFLPPPRDHTPPPVLYWLSGLTCNDENFTTKAGAQRVAAELGIVLVMPDTSPRGEKVANDDGYDLGQGAGFYLNATQPPWATHYRMYDYLRDELPALVQSQFNVSDRCAISGHSMGGHGALIMALKNPGKYTSVSAFAPIVNPCSVPWGIKAFSSYLGEDKNAWLEWDSCALMYASNAQDAIPTLIDQGDNDQFLADQLQPAVLAEAARQKAWPMTLRIQPGYDHSYYFIASFIEDHLRFHAQYLLK,Km,"p-NP-C4; pH 8, 37 °C",700 µM
same,kcat,"p-NP-C4; pH 8, 37 °C",0.36 s⁻¹
same,kcat/Km,"p-NP-C4; pH 8, 37 °C",514 M⁻¹ s⁻¹
unnamed (protein) MLAVWDDTLAHPVRGRDRELATLTGLLDNTSGRRGTGMVVVGAPGTGKTTLLNALVEHAEGFQVLWAEGSAAESDVRFAGVEQLLRPLESLVSLLPDDRGRALRPVWGLPADDEGQVGSLAVPAAVSALLGLAARRQPVLCCVDSAHLLDSASLSALAFAARRAHHAGVVFVFAVDCTADTEVDTETSVWGELPRLRLGRLDDEAAHALLRDRLGASLPHDLADSLLDVGHGNPLALVELAESLTPEHLCGRAAPPSSPPPEGRLCRTLGHRLSALSEGAREVVALAGISEGLDEQLTCRVLPHHRSTLAEAVRSGLVVLDGDTVRTAADTVPSALLAALTPQDIVQAHHRMAEAAEAVGDRDRAVWHRAAIAMAPDPALVADLDDIAERARAAAAHATAAAASERAAALTSDTKERARRLVAAATDHWASGRPQRARTALRLAAPLSDSVLGARVSRLAGEIELRRGDPSVAATKLISTARQLASTHRTLAASALMLAGEASFVAGDNARYCLTAKDAALLCGPEEWPATRVVREHFTAMSATFRGEHSAAAAPLRSLVELGETTPDPTAKTLASQAAFTLGDAERSRDLALQAVVCARARGDESGVPWALVYAALSALLSGQLSAASTTALEGLQVARSLGQSNSAVDHVTVLAMLAALQGDEETALQRLQAANTELAERGLGRPSALATWAAACVDLAHDRPAEAFDRFRRMTVGRSRHCVPLRVMAVPHFVEAAVRCGEKEVARRSLVTFEHWANTTGGTARVALAHRCHALLAEQDGEAQERFTEAVRLHREADAPYDLAVTQLLYASHLRRSRRPKQARELLREAVQLFDDLGATHWVERASQELRACGHPGRGKPHLSRGLSPQQERIAQLVADGATNKEIATQLFISHRTVDHHLRNIFAKLDVRSRVQLAALFR,Proxy for plastic degradation,PET [2],12.5 mM
same,Proxy for plastic degradation,PBSA,308
unnamed (protein) MDGVLWRVRTAALMAALLALAAWALVWASPSVEAQSNPYQRGPNPTRSALTADGPFSVATYTVSRLSVSGFGGGVIYYPTGTSLTFGGIAMSPGYTADASSLAWLGRRLASHGFVVLVINTNSRFDYPDSRASQLSAALNYLRTSSPSAVRARLDANRLAVAGHSMGGGGTLRIAEQNPSLKAAVPLTPWHTDKTFNTSVPVLIVGAEADTVAPVSQHAIPFYQNLPSTTPKVYVELDNASHFAPNSNNAAISVYTISWMKLWVDNDTRYRQFLANVNDPALSDFRTNNRHAQ,Km,"p-NP-C4; pH 8, 30 °C",250 µM
same,kcat,"p-NP-C4; pH 8, 30 °C",342 s⁻¹
same,kcat/Km,"p-NP-C4; pH 8, 30 °C",1.37e+06 M⁻¹ s⁻¹
same,Km,"p-NP-C4; pH 8, 50 °C",180 µM
same,kcat,"p-NP-C4; pH 8, 50 °C",196 s⁻¹
same,kcat/Km,"p-NP-C4; pH 8, 50 °C",1.09e+06 M⁻¹ s⁻¹
same,Km,"p-NP-C4; pH 8, 70 °C",190 µM
same,kcat,"p-NP-C4; pH 8, 70 °C",49 s⁻¹
same,kcat/Km,"p-NP-C4; pH 8, 70 °C",258000 M⁻¹ s⁻¹
unnamed (protein) MDGVLWRVRTAALMAALLALAAWALVWASPSVEAQSNPYQRGPNPTRSALTADGPFSVATYTVSRLSVSGFGGGVIYYPTGTSLTFGGIAMSPGYTADASSLAWLGRRLASHGFVVLVINTNSRFDYPDSRASQLSAALNYLRTSSPSAVRARLDANRLAVAGHSMGGGGTLRIAEQNPSLKAAVPLTPWHTDKTFNTSVPVLIVGAEADTVAPVSQHAIPFYQNLPSTTPKVYVELDNASHFAPNSNNAAISVYTISWMKLWVDNDTRYRQFLCNVNDPALSDFRTNNRHCQ,Proxy for plastic degradation,[3],9 mg
same,Proxy for plastic degradation,PET [4],1.5 mg
unnamed (protein) MWLRAFILATLSASAAWGHPSSPPVVDTVHGKVLGKFVSLEGFAQPVAIFLGIPFAKPPLGPLRFTPPQPAEPWSFVKNATSYPPMCTQDPKAGQLLSELFTNRKENIPLKLSEDCLYLNIYTPADLTKKNRLPVMVWIHGGGLMVGAASTYDGLALAAHENVVVVTIQYRLGIWGFFSTGDEHSRGNWGHLDQVAALRWVQDNIASFGGNPGSVTIFGESAGGESVSVLVLSPLAKNLFHRAISESGVALTSVLVKKGDVKPLAEQIAITAGCKTTTSAVMVHCLRQKTEEELLETTLKMKFLSLDLQGDPRESQPLLGTVIDGMLLLKTPEELQAERNFHTVPYMVGINKQEFGWLIPMQLMSYPLSEGQLDQKTAMSLLWKSYPLVCIAKELIPEATEKYLGGTDDTVKKKDLFLDLIADVMFGVPSVIVARNHRDAGAPTYMYEFQYRPSFSSDMKPKTVIGDHGDELFSVFGAPFLKEGASEEEIRLSKMVMKFWANFARNGNPNGEGLPHWPEYNQKEGYLQIGANTQAAQKLKDKEVAFWTNLFAKKAVEKPPQTEHIEL,Km,"p-NP-C4; pH 8, 37 °C",27 µM
same,kcat,"p-NP-C4; pH 8, 37 °C",17 s⁻¹
same,kcat/Km,"p-NP-C4; pH 8, 37 °C",630000 M⁻¹ s⁻¹
